Assay results as given in US20230121197A1, “ANTIBODIES SPECIFICALLY BINDING THE CARBOXYMETHYLATED CATALYTIC SUBUNIT OF PROTEIN PHOSPHATASE 2A” (Medizinische Universität Wien, priority 2020, published 2023).

What was measured:
Assay type in all cases: binding
[1] = target: T1, carboxymethylated PP2Ac C-terminal peptide (ac-[…]-CH3) (Homo sapiens, UniProt P67775); assay: Surface plasmon resonance (Biacore T200), steady state analysis, carboxymethylated PP2Ac peptide
T1 construct: The following 11-mer peptides corresponding to the carboxymethylated or non-methylated carboxy-terminus of PP2A and PP4 catalytic subunits were used as antigens
Description: (§1) The differential affinity of anti-carboxymethylated PP2Ac antibodies, 7C10-C5 and 2A10, to carboxymethylated PP2A catalytic subunit versus noncarboxymethylated PP2A catalytic subunit was determined by surface plasmon resonance (SPR) on a Biacore T200 (GE Healthcare) at the Core Facility Biomolecular & Cellular Analysis (University of Natural Resources and Life Sciences Vienna BOKU). The affinity of 7C10-C5 for carboxymethylated and noncarboxymethylated catalytic subunit of PP4 (PP4c), a PP2A-related phosphatase, was also determined. […] The KD of the binding of 7C10-C5 (or 2A10) to non-carboxymethylated PP2Ac or PP4c could not be determined because at the highest analyte sample concentration (5000 nM) only very weak binding signals were detected indicating KD values of at least >5000 nM or higher. […]
(§2) SPR experiments were performed with the BiacoreT200 instrument (Cytiva). […] The sensorgrams obtained were analyzed with BiacoreT200 Evaluation Software (version 3.1). […]

[2] = target: T2, carboxymethylated PP4c C-terminal peptide (ac-[…]-CH3) (Homo sapiens, UniProt P60510); assay: Surface plasmon resonance (Biacore T200), steady state analysis, carboxymethylated PP4c peptide; details: PP4 Me peptide, 360 sec contact time, 40 μL/min
T2 construct: The following 11-mer peptides corresponding to the carboxymethylated or non-methylated carboxy-terminus of PP2A and PP4 catalytic subunits were used as antigens
Description: as §1, §2

HA-PP4c = target: T3, HA-PP4c (Mus musculus, UniProt P97470); assay: Immunoblotting of anti-HA immunoprecipitates of NIH3T3 cells, PP4c
T3 construct: expressed in transfected cells; host or cells: NIH3T3 mouse fibroblasts, retroviral pBabe hygro HA-PP4c
T3 sequence (P97470 1-307): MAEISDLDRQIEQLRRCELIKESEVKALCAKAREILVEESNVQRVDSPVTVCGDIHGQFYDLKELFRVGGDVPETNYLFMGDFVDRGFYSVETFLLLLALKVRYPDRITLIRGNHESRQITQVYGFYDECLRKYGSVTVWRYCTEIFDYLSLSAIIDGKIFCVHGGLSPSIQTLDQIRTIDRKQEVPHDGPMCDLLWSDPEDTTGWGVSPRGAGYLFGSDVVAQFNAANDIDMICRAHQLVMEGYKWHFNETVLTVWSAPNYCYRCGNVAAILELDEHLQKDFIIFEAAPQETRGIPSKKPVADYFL
From the text: The catalytic subunits of protein phosphatase 4 (PP4c) and 6 (PP6c) are closely related to PP2Ac with approximately 50% sequence identity. PP2Ac, PP4c and PP6c share the C-terminal DYFL or YFL motif, respectively (FIG. 8A). Therefore, a potential cross-reactivity of 7C10-C5 with α-carboxymethylated PP4c and/or PP6c was examined and compared to another anti-carboxymethyl-PP2Ac antibody 2A10. 2A10 is a carboxymethyl-PP2Ac specific antibody that has been raised against a larger C-terminal PP2Ac peptide (amino acids 302-309, carboxymethylated Leu^309) and that has been shown before to cross-react with α-carboxymethylated PP4c (Lee (2014), Biochem Biophys Res Commun 452, 42-47). HA tagged human PP2Ac a, mouse HA PP4c or mouse HA PP6c from NIH3T3 mouse fibroblasts stably expressing these HA-tagged proteins were immunoprecipitated. The precipitated proteins were then analyzed by immunoblotting with anti-carboxymethyl-PP2Ac antibodies 7C10-C5 or 2A10.
Specifically, 500 μl corresponding to 1 mg of whole cell protein lysates of NIH3T3 mouse fibroblasts were incubated with anti-hemagglutinin (HA) antibody (clone 12CA5) crosslinked to BSA-coated protein A-Sepharose beads (GE-Healthcare) to immunoprecipitate HA-epitope tagged PP2Ac, PP4c or PP6c for 1 h. […]

B1: 7C10-C5: α-carboxymethylation specific mouse monoclonal IgG1 antibody from single clone hybridoma 7C10-C5 (DSM ACC3350) (antibody)
heavy: MYRMQLLSCIALSLALVTNSDVQLQESGPGLVKPSQSLSLTCSVTGYSITSGYYWNWIRQFPGNKLEWMGYISYDGSNNYNPSLKNRISITRDTSKNQFFLKLNSVTTEDTATYYCAGRFAYWGQGTLVTVSAAKTTAPSVYPLAPVCGDTTGSSVTLGCLVKGYFPEPVTLTWNSGSLSSGVHTFPAVLQSDLYTLSSSVTVTSSTWPSQSITCNVAHPASSTKVDKKIEPRGPTIKPCPPCKCPAPNLLGGPSVFIFPPKIKDVLMISLSPIVTCVVVDVSEDDPDVQISWFVNNVEVHTAQTQTHREDYNSTLRVVSALPIQHQDWMSGKEFKCKVNNKDLPAPIERTISKPKGSVRAPQVYVLPPPEEEMTKKQVTLTCMVTDFMPEDIYVEWTNNGKTELNYKNTEPVLDSDGSYFMYSKLRVEKKNWVERNSYSCSVVHEGLHNHHTTKSFSRTPGK
light: MDMRVPAQLLGLLLLWLSGARCDVLMTQTPLSLPVSLGDQASISCRSSQSIVHSNGNTYLEWYLQKPGQSPKLLIYKVSNRFSGVPDRFSGSGSGTDFTLKINRVEAEDLGVYYCFQGSHVPWTFGGGTKLEIKADAAPTVSIFPPSSEQLTSGGASVVCFLNNFYPKDINVKWKIDGSERQNGVLNSWTDQDSKDSTYSMSSTLTLTKDEYERHNSYTCEATHKTSTSPIVKSFNRNEC
modifications: Amino acid sequence of the recombinant 7C10-C5 heavy chain; Amino acid sequence of the recombinant 7C10-C5 light chain
Kd ([1]; SPR steady-state affinity model, carboxymethylated PP2Ac 11-mer peptide (SEQ ID NO:18)): ≤ 20 nM | Rmax ([1]; steady state analysis, PP2A Me peptide, 360 sec contact time, 40 μL/min): 25.14 RU | Rmax [2]: 20.17 RU | detection of PP4c (HA-PP4c; Western blot of HA immunoprecipitates): did not detect | binding to carboxymethylated PP2Ac stronger than to carboxymethylated PP4c (HA-PP4c; Western blot, suggested since no discernable signal): 100-fold or even 500-fold
